Source: patent US8143372B2, “Synthetic regulators of ferritin protein nanocage pores and methods of use thereof” (Children's Hospital & Research Center Oakland, priority 2007, dated 2012)
No end group written: not given here.

Target: T1, recombinant, frog ferritin H protein nanocages (wild type) (Aquarana catesbeiana, UniProt P07229)
T1 construct: made in house
T1 sequence (P07229 1-176): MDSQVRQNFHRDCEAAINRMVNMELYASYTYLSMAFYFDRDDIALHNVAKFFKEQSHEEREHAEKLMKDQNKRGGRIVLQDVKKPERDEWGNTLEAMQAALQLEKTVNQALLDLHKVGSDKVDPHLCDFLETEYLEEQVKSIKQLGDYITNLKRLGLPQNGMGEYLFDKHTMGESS
Assay: Ferritin demineralization: formation of Fe2+-bipyridyl after adding NADH/FMN
Assay type: biochemical
Settings: for Initial rate of Fe^2+ bipyridyl formation, pH = 7.0: 2.5 mM FMN, 2.5 mM NADH, 2.5 mM bipyridyl, absorbance 522 nm
Excerpt: The effect of the test agent on demineralization (e.g., on release of iron from ferritin) is generally carried out by contacting the test agent with ferritin in the presence of a reductant and an iron chelating agent such as bipyridyl or desferrioxamine. A suitable reductant comprises nicotinamide adenine dinucleotide reduced form (NADH) and flavin mononucleotide (FMN). The reductant reduces Fe(III) to Fe(II); and the iron chelating agent forms a complex with the Fe(II). Iron release from ferritin can be measured using any convenient method, including methods known in the art. The following is a non-limiting example of a suitable method. In this example, iron release from ferritin is measured by the formation of Fe(II)-bipyridyl. Iron release can be initiated by the addition of 2.5 mM bipyridyl, 2.5 mM FMN, and 2.5 mM NADH to ferritin in 0.1 M MOPS (pH 7.0) and 0.2 M NaCl. Formation of Fe(II)-bipyridyl is detected by measuring absorbance at 522 nm. See, e.g. Liu et al. (2003) Proc. Natl. Acad. Sci. USA 100:3653; and Takagi et al. (1998) J. Biol. Chem. 273:18685. Desferrioxamine can also be used as an iron chelator. See, e.g., Breuer et al. (2001) Blood 97:792.
The strategy used to identify molecules that would modulate ferritin protein nanocage pore function had two components: (i) searching a combinatorial peptide library for ferritin binding peptides, and (ii) analyzing the effect of reductants on the ferritin mineral inside the protein nanocages. Peptides were selected as the molecules of choice for pore alterations because of the selectivity of urea (1 mM) and guanidine (0.1 mM) in pore unfolding, observed previously. Liu and Theil (2003) Proc. Natl. Acad. Sci. U.S.A. 100:3653. Changes in ferritin protein nanocage pore gating can be analyzed as changes in the rate of ferritin iron demineralization, measured as formation of colored Fe chelates, when reductant (NADH/FMN) is added. Jones et al. (1978) Biochemistry 17:4011.
The peptides were mixed with wild type ferritin; demineralization was initiated by addition of NADH/FMN, and the appearance of Fe^2+-bipyridyl measured (FIG. 2). Three of the peptides (2, 3, and 5) had no effect on rates of formation of Fe^2+-bipyridyl, compared to wild type ferritin H protein nanocages, while Peptide 4 (Group B, eluted with ferritin H protein nanocages, after elution with ferritin H-L134P protein nanocages) decreased the rate 63%. Peptide 4 has 3 His and 1 Asp and could bind to charged residues around the pore. The peptide interaction with ferritin protein nanocage could interfere with unfolding and/or reductant access to the ferric mineral, or might induce conformational changes at the pore or elsewhere.
FIG. 2. Effect of binding peptides on removal of iron from the ferritin mineral. Demineralization of ferritin (recombinant, frog ferritin H protein nanocages; protein: 2.06 μM; Fe: 0.99 mM, MOPS: 100 mM, NaCl: 100 mM, pH 7.0) was initiated with reductant (final concentration: 2.5 mM FMN, 2.5 mM NADH), with bipyridyl (2.5 mM); formation of Fe^2+-bipyridyl was monitored at 522 nm. Initial reaction rates were calculated as described previously (Liu et al. (2003) Proc. Natl. Acad. Sci. USA 100:3653). Ferritin binding peptides, identified in a combinatorial, heptapeptide, phage-display library (1.3×10^9 members, New England Biolabs), were mixed with mineralized ferritin protein nanocages for one hour before initiating demineralization. Peptide 2 (Group A, eluted with H-L134P ferritin protein nanocage) and Peptides 3 and 5 (Group B, eluted with wild type ferritin protein nanocage), had no effect. The data are averages from triplicates in 2-5 independent experiments with two different protein preparations; the error is the standard deviation. […]

[1] = compared to wild type ferritin H protein nanocages without peptide

| Substance | Effect on rates of formation of Fe^2+-bipyridyl [1] | Initial rate of Fe^2+ bipyridyl formation, pH = 7.0 (H-wt ferritin + peptide) | other results |
| --- | --- | --- | --- |
| GDWYLGD (SEQ ID NO:5) (GDWYLGDGG; not fully specified (N-terminus)) [Peptide 3, heptapeptide from the phage display library, synthesized as an undecapeptide with HS at the N-terminus and GG at the C-terminus] | no effect |  |  |
| HHALGGS (SEQ ID NO:6) (HHALGGSGG; not fully specified (N-terminus)) [Peptide 5, heptapeptide from the phage display library, synthesized as an undecapeptide with HS at the N-terminus and GG at the C-terminus] | no effect |  |  |
| HSHHALDGSGG (SEQ ID NO:2) [Peptide 4] |  | 0.41 ± 0.05 (mMol) × 10^3S^−1 | Decrease of the rate of formation of Fe^2+-bipyridyl [1]: 63% |
| HSNTYYFPKGG (SEQ ID NO:7) [Peptide 1] |  | 6.80 ± 0.37 (mMol) × 10^3S^−1 | Rate Change with Temperature (Arrhenius equation) E‡ (Table 1, H-wt ferritin + peptide): 19.1 ± 0.621 kcal/mol; E‡ in the Arrhenius plot (wild type ferritin complexed with peptide, FIG. 2B): 20.8 kcal/mol |
| SHTSPSI (SEQ ID NO:4) (SHTSPSIGG; not fully specified (N-terminus)) [Peptide 2, heptapeptide from the phage display library, synthesized as an undecapeptide with HS at the N-terminus and GG at the C-terminus] | no effect |  |  |
